The term Kd denotes the equilibrium constant for the complex coming apart.

The subject of data set [1] is MHV68UNG (murine gammaherpesvirus 68). Put plainly: fluorescence anisotropy. Conditions: N15 of strand 1 = abasic (AP) site made from U by UNG; G opposite.
The test system of data set [2] is MHV68UNGΔN-Ls (murine gammaherpesvirus 68 / mouse chimera). The data set is described as follows: fluorescence anisotropy. Conditions: N15 of strand 1 = abasic (AP) site made from U by UNG; G opposite. Background: In fluorescence polarisation assays a small probe gives low polarisation when free and higher when bound to something large.

For “AGAAAAGGGGAAAGNAAAGAGGAAAGGTGAGGAGGT / ACCTCCTCACCTTTCCTCTTTGCTTTCCCCTTTTCT [AP:G dsDNA (fluorescein)]”, the Kd in data set [1] was found to be 680 nM; in data set [2], 751 nM.

These data come from paper PMC10441670.
